Like-named read-outs stand apart in the source and are kept apart here.

What all share (assay): two-hybrid library CCmax;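 also: natural log of median RNA to DNA barcode read ratio; higher means stronger binding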
The target of one experiment is T1, 4H56-AA.
T1 chain: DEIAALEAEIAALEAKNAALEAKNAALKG
The note with it: mean of both orientations.

The target of a further experiment is T2, 4H2732-AA.
T2 chain: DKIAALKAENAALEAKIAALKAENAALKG
The note with it: mean of both orientations.

The next experiment has as its target T3, 4H2699-AA.
T3 chain: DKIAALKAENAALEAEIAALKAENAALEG
The note with it: mean of both orientations.

The target in the next experiment is T4, 4H3595-AA.
T4 chain: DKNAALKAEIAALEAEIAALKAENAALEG

The next experiment has as its target T5, 4H3629-AA.
T5 chain: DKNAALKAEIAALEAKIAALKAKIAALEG
Conditions: mean of both orientations.

The next experiment deals with T6, 4H3129-AA.
T6 chain: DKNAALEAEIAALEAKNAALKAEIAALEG
The note with it: mean of both orientations.

In another experiment the target is T7, 4H3414-AA.
T7 chain: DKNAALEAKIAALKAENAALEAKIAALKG
Conditions: mean of both orientations.

Another experiment deals with T8, 4H3073-AA.
T8 chain: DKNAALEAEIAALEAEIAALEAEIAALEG

The target of a further experiment is T9, 4H2466-AA.
T9 chain: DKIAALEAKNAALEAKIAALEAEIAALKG
The note with it: mean of both orientations.

A further experiment deals with T10, O13-AA.
T10 chain: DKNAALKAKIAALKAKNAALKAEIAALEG
The note with it: mean of both orientations.

Another experiment has as its target T11, 4H1385-AA.
T11 chain: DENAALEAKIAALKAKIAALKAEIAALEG
The note with it: mean of both orientations.

The target of another experiment is T12, O11-AA.
T12 chain: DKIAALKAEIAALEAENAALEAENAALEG
The note with it: mean of both orientations.

The next experiment has as its target T13, 4H993-AA.
T13 chain: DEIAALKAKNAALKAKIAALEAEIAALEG
Conditions: mean of both orientations.

In a further experiment the target is T14, 4H48-AA.
T14 chain: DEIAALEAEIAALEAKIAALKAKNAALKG
The note with it: mean of both orientations.

The target of another experiment is T15, 4H2393-AA.
T15 chain: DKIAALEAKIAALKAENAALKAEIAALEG
Conditions: mean of both orientations.

The next experiment concerns the target T16, 4H605-AA.
T16 chain: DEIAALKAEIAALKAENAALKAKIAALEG
The note with it: mean of both orientations.

The next experiment has as its target T17, 4H3627-AA.
T17 chain: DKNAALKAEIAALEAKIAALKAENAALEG
The note with it: mean of both orientations.

For another experiment, the target named is T18, 4H2837-AA.
T18 chain: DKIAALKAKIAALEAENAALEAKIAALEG

The next experiment addresses T19, 4H2354-AA.
T19 chain: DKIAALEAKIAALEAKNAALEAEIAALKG
The note with it: mean of both orientations.

The target of another experiment is T20, 4H234-AA.
T20 chain: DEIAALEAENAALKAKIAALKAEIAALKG
The note with it: mean of both orientations.

Another experiment concerns the target T21, 4H2754-AA.
T21 chain: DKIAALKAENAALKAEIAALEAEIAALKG
The note with it: mean of both orientations.

The target in a further experiment is T22, 4H2949-AA.
T22 chain: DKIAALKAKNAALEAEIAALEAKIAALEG
Conditions: mean of both orientations.

For another experiment, the target named is T23, 4H3112-AA.
T23 chain: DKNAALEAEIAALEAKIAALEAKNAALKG
Conditions: mean of both orientations.

The next experiment deals with T24, 4H3655-AA.
T24 chain: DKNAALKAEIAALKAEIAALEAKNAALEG
Conditions: mean of both orientations.

Another experiment addresses T25, 4H454-AA.
T25 chain: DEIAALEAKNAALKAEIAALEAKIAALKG
The note with it: mean of both orientations.

For a further experiment, the target named is T26, 4H429-AA.
T26 chain: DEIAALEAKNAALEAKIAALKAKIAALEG
Conditions: mean of both orientations.

The target of the next experiment is T27, 4H2729-AA.
T27 chain: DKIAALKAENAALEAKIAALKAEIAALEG
The note with it: mean of both orientations.

For another experiment, the target named is T28, P9-AA.
T28 chain: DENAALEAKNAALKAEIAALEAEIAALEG
Conditions: mean of both orientations.

For the next experiment, the target named is T29, P10-AA.
T29 chain: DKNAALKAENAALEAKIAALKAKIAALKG
The note with it: mean of both orientations.

A further experiment addresses T30, 4H1842-AA.
T30 chain: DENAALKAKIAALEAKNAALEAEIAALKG
The note with it: mean of both orientations.

In a further experiment the target is T31, 4H171-AA.
T31 chain: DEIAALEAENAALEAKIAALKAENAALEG

A further experiment deals with T32, 4H1626-AA.
T32 chain: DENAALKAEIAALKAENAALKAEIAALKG

The next experiment deals with T33, 4H1629-AA.
T33 chain: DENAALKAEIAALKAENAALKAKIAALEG
The note with it: mean of both orientations.

The target in the next experiment is T34, 4H3162-AA.
T34 chain: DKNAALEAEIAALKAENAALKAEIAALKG
The note with it: mean of both orientations.

For a further experiment, the target named is T35, 4H1513-AA.
T35 chain: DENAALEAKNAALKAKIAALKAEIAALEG
The note with it: mean of both orientations.

The target in the next experiment is T36, 4H1401-AA.
T36 chain: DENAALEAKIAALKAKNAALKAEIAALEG

In the next experiment the target is T37, 4H3133-AA.
T37 chain: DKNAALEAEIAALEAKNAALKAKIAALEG
Conditions: mean of both orientations.

For the next experiment, the target named is T38, 4H3588-AA.
T38 chain: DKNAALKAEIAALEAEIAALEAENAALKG
Conditions: mean of both orientations.

A further experiment deals with T39, 4H340-AA.
T39 chain: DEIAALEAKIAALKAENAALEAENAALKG
Conditions: mean of both orientations.

Turning to DEIAALEAENAALKAKNAALKAEIAALEG [4H249-AA], the interaction score is -1.62 with 4H56-AA; -0.302 with 4H2732-AA; -1.1 with 4H2699-AA; -1.4 with 4H3595-AA (mean of both orientations); -1.69 with 4H3629-AA; -2.01 with 4H3129-AA. For the same molecule, the interaction score is 0.535 with 4H3414-AA and -1.75 with 4H3073-AA (mean of both orientations).

Consider DKIAALEAENAALKAEIAALKAKIAALEG [4H2253-AA], for which the interaction score in the experiment with 4H56-AA is -1.23; with 4H2732-AA it was -1.3; in the experiment with 4H2466-AA it was -1.68; with 4H3073-AA (mean of both orientations), -0.681.

DENAALEAKIAALKAEIAALEAKIAALKG [4H1350-AA]: the results for the interaction score with O13-AA, in the experiment with 4H1385-AA and with O11-AA were 0.34, 2.18 and -0.612, respectively.

Take DKIAALEAEIAALKAKNAALEAKIAALEG [4H2165-AA]: the interaction score in the experiment with 4H993-AA is 0.0167; with 4H48-AA, -1.31; with 4H2393-AA, -0.392; in the experiment with 4H56-AA, -0.766; in the experiment with 4H605-AA, -1.15; in the experiment with 4H2732-AA, -1.36. In addition, the interaction score is -1.58 with 4H3627-AA; 0.959 with 4H2837-AA; -1.76 in the experiment with 4H2354-AA; -1.49 with 4H2466-AA; -1.27 in the experiment with 4H234-AA; -0.0505 with 4H2754-AA. For the same molecule, the interaction score with 4H3073-AA is -1.45; with 4H2949-AA it was -1.21; in the experiment with 4H3112-AA, -0.868; in the experiment with 4H3655-AA it was -1.37; with 4H454-AA, -0.571; in the experiment with 4H429-AA, -1.87. Also, the interaction score with 4H2729-AA is -1.3.

For DENAALEAEIAALEAKIAALEAKNAALKG [4H1064-AA], the interaction score in the experiment with 4H2699-AA was -1.48; in the experiment with 4H3595-AA, 0.0501; in the experiment with 4H3629-AA, 0.654; in the experiment with 4H3129-AA, -1.71; with 4H3414-AA, -0.952.

Take DEIAALEAENAALEAKIAALKAENAALEG [4H171-AA]: the interaction score in the experiment with P9-AA was -0.774; with O13-AA, 2.21; with P10-AA it was -1.48; with 4H1842-AA it was -1.26; in the experiment with O11-AA, -1.82; with 4H171-AA, -1.01.

With DKNAALKAEIAALEAENAALEAKIAALKG [4H3606-AA], the interaction score with 4H993-AA was 1.33; with 4H48-AA it was -0.695; in the experiment with 4H605-AA, 0.159; with 4H3627-AA it was -1.29; with P9-AA it was -0.51; with P10-AA, 0.12. In addition, the results for the interaction score in the experiment with 4H3655-AA, with 4H454-AA and in the experiment with 4H429-AA were -1.72, 1.23 and 0.643, respectively.

For DENAALEAENAALKAKIAALKAEIAALEG [4H1257-AA], the interaction score in the experiment with 4H2699-AA was -0.951; with 4H3595-AA (mean of both orientations) it was 0.807; in the experiment with 4H3629-AA, 0.329; with 4H3129-AA, -1.9; in the experiment with 4H3414-AA, -1.01; in the experiment with 4H3112-AA it was 0.173.

As for DENAALKAEIAALKAENAALKAEIAALKG [4H1626-AA], the interaction score in the experiment with 4H1626-AA is 1.63; with 4H1842-AA, -1.57; with 4H171-AA (mean of both orientations), -1.66.

Consider DENAALEAKIAALKAKNAALKAEIAALEG [4H1401-AA], for which the interaction score was -1.26 in the experiment with 4H993-AA; 0.338 in the experiment with 4H48-AA; -1.08 in the experiment with 4H1629-AA; -1.43 in the experiment with 4H2393-AA; -1.38 with 4H605-AA; -0.375 with 4H3162-AA. Further, the interaction score in the experiment with 4H3627-AA is -1.38; in the experiment with 4H1513-AA, -1.9; with 4H2837-AA (mean of both orientations), 1.61; in the experiment with 4H2354-AA it was -1.3; in the experiment with P9-AA, -0.999; with 4H2466-AA, -1.54. Also, the interaction score in the experiment with 4H1401-AA is -1.49; in the experiment with 4H234-AA it was 0.335; in the experiment with P10-AA it was -0.931; with 4H3133-AA it was -0.677; with 4H2754-AA, -1.71; with 4H3588-AA, -0.275. For the same molecule, the interaction score is 0.393 in the experiment with 4H2949-AA; -1.06 with 4H3112-AA; -1.48 with 4H3655-AA; -1.2 with 4H454-AA; 0.239 in the experiment with 4H429-AA; -1.93 with 4H340-AA. In the experiment with 4H2729-AA, the interaction score is 0.705.

DENAALKAKIAALEAKNAALEAKIAALEG [4H1845-AA]: the interaction score in the experiment with 4H3162-AA is -1.73; in the experiment with 4H3133-AA, -0.676; in the experiment with 4H3588-AA it was -1.56; with 4H3112-AA, -1.24; with 4H340-AA, -1.97.

(Values after PMC10397247.)
